US9175313B2, “Three-dimensional structure of isoprene synthase and its use thereof for generating variants” (Danisco US Inc., priority 2009, dated 2015)

Experiment: DMAPP assay of site evaluation library (SEL) lysates with ELISA protein quantitation: specific activity ranked as performance index
Assay type: biochemical
Details: primary SEL screen; activity on DMAPP per unit weight relative to the parental molecule (parent = 1)
Experimental: 1. Prepared Patch Plates from Glycerol Stock Plates. Using a V&S 96 pin Replication Tool, cultures were patched onto a LB Agar 35 CMP/50 Kan large patch plates from overnight glycerol stock plates. Plates were incubated at 30° C. overnight for 20 to 24 hr. Cultures can be stored at 4° C. for up to a week.
2. Prepared Overnight Growth Plates. 500 mL of LB 35 CMP/50 Kan media were prepared. 300 μL/well of LB 35 CMP/50 Kan media were dispensed into deep 96 well plates (VWR). Using a V&S Replication Tool, the patch inoculum was transferred into deep 96 well plate by touching the tool pins to respective patch and using a circular motion to coat the pins with inoculum. The media was inoculated by dipping the tool then shaking the pin within the well. The overnight growth plates were sealed using a Breathe-Easier Sealing Membrane (Diversified Biotech). The plates were incubated in a Vertiga Shaking Incubator at 30° C. with shaking at 800 rpm overnight for 16 to 18 hr.
3. Prepared Day Growth Plate. Deep 96 well plates were prepared by dispensing 588 μL/well of LB 35 CMP/50 Kan media. Overnight growth plates were removed from the incubator. Overnight cultures were diluted 50-fold and 12 μL of overnight culture were transferred to day growth plates containing 588 μL/well of LB media containing antiobiotics. Overnight growth plates were sealed with new Breathe-Easier Sealing Membranes. Cultures were incubated at 30° C. and 800 rpm for 2.5 hr. Frozen 12 mM IPTG (Sigma) vials were removed from −20° C. and placed in a hood to thaw.
4. OD600 Plate Read of Overnight, Induction, and Harvest. 150 μL 1×PBS were dispensed into 96 well Costar Read Plates (#9017). 50 μL of culture samples were transferred to Read Plates. The OD600 reading was recorded using a Spectramax Plate Reader (Molecular Devices).
5. Induction. Electronic multi-channel pipettors were prepared to dispense 4×20 μL/well of IPTG (if 4× replicates). The multi-dispense option in the electronic pipettor was adjusted if more replicates was necessary. Thawed 12 mM IPTG was poured into 50 mL or 100 mL sterile reservoirs. 20 μL/well of IPTG into each 600 μL/well culture. Overnight growth plates were resealed. Cultures were incubated at 30° C. and 800 rpm for 4 hr. OD600 readings of plates were recorded according instructions above.
6. Harvest. 400 μL of induced culture were transferred to 800 μL Grenier storage plates. Plates were centrifuged at 3300 rpm for 20 min at 2° to 8° C. in a low speed benchtop centrifuge. Supernatants were discarded, pellets should stay in the conical bottom well. Residual supernatants were slapped out onto a paper towel on the benchtop. Plates were sealed with an aluminum foil membrane (Beckman-Coulter). Plates were covered with a plastic plate lid if available. Storage plates were labeled accordingly and stored frozen at −80° C.
Plates containing induced cell pellets were removed from the −80° C. freezer and allowed to thaw on the benchtop for 30 minutes prior to lysis. 200 μl of lysis buffer (50 mM Tris pH 8, 25 mM MgCl2, 74 μg/ml DNase I, 250 U/ml lysozyme, 0.1% Tween 20, 0.5 mM PMSF) was added to each pellet, and plates were incubated on an Eppendorf Thermomixer at 25° C. for 30 minutes at 1200 rpm. After lysis, plates were centrifuged at 3450 rpm for 15 minutes at 4° C. Supernatants were then removed and diluted 10-fold prior to DMAPP assay. 80 μl of the diluted supernatant was added to 20 μl of the DMAPP working stock (20 mM DMAPP in 0.1 M Phosphate Buffer pH 8.2, DMAPP triammonium salt, Cayman chemicals) in a Zinsser glass block. Blocks were then sealed with aluminum sealing membranes, and incubated in Thermomixers at 25° C. for 30 minutes at 450 rpm. Reactions were stopped by incubating blocks on Thermomixers at 70° C. for 12 minutes at 450 rpm. GC-MS was then used for headspace measurements to calculate the amount of isoprene produced by each lysates.
Headspace Assay. […]

Molecule	performance index
D345R: P. alba IspS variant (protein, UniProt Q50L36 38-595, looked up, variant D345R) Isoprene synthase, …: CSVSTENVSFTETETEARRSANYEPNSWDYDYLLSSDTDESIEVYKDKAKKLEAEVRREINNEKAEFLTLLELIDNVQRLGLGYRFESDIRGALDRFVSSGGFDAVTKTSLHGTALSFRLLRQHGFEVSQEAFSGFKDQNGNFLENLKEDIKAILSLYEASFLALEGENILDEAKVFAISHLKELSEEKIGKELAEQVNHALELPLHRRTQRLEAVWSIEAYRKKEDANQVLLELAILDYNMIQSVYQRDLRETSRWWRRVGLATKLHFARDRLIESFYWAVGVAFEPQYSDCRNSVAKMFSFVTIIRDIYDVYGTLDELELFTDAVERWDVNAINDLPDYMKLCFLALYNTINEIAYDNLKDKGENILPYLTKAWADLCNAFLQEAKWLYNKSTPTFDDYFGNAWKSSSGPLQLVFAYFAVVQNIKKEEIENLQKYHDTISRPSHIFRLCNDLASASAEIARGETANSVSCYMRTKGISEELATESVMNLIDETWKKMNKEKLGGSLFAKPFVETAINLARQSHCTYHNGDAHTSPDELTRKRVLSVITEPILPFER	0.40
D345P: P. alba IspS variant (protein, UniProt Q50L36 38-595, looked up, variant D345P) Isoprene synthase, …: CSVSTENVSFTETETEARRSANYEPNSWDYDYLLSSDTDESIEVYKDKAKKLEAEVRREINNEKAEFLTLLELIDNVQRLGLGYRFESDIRGALDRFVSSGGFDAVTKTSLHGTALSFRLLRQHGFEVSQEAFSGFKDQNGNFLENLKEDIKAILSLYEASFLALEGENILDEAKVFAISHLKELSEEKIGKELAEQVNHALELPLHRRTQRLEAVWSIEAYRKKEDANQVLLELAILDYNMIQSVYQRDLRETSRWWRRVGLATKLHFARDRLIESFYWAVGVAFEPQYSDCRNSVAKMFSFVTIIPDIYDVYGTLDELELFTDAVERWDVNAINDLPDYMKLCFLALYNTINEIAYDNLKDKGENILPYLTKAWADLCNAFLQEAKWLYNKSTPTFDDYFGNAWKSSSGPLQLVFAYFAVVQNIKKEEIENLQKYHDTISRPSHIFRLCNDLASASAEIARGETANSVSCYMRTKGISEELATESVMNLIDETWKKMNKEKLGGSLFAKPFVETAINLARQSHCTYHNGDAHTSPDELTRKRVLSVITEPILPFER	0.35
L469L: SEL member with the wild type residue at site 469 (wild type codon substituted) (protein, UniProt Q50L36 38-595, looked up) Isoprene synthase, …: CSVSTENVSFTETETEARRSANYEPNSWDYDYLLSSDTDESIEVYKDKAKKLEAEVRREINNEKAEFLTLLELIDNVQRLGLGYRFESDIRGALDRFVSSGGFDAVTKTSLHGTALSFRLLRQHGFEVSQEAFSGFKDQNGNFLENLKEDIKAILSLYEASFLALEGENILDEAKVFAISHLKELSEEKIGKELAEQVNHALELPLHRRTQRLEAVWSIEAYRKKEDANQVLLELAILDYNMIQSVYQRDLRETSRWWRRVGLATKLHFARDRLIESFYWAVGVAFEPQYSDCRNSVAKMFSFVTIIDDIYDVYGTLDELELFTDAVERWDVNAINDLPDYMKLCFLALYNTINEIAYDNLKDKGENILPYLTKAWADLCNAFLQEAKWLYNKSTPTFDDYFGNAWKSSSGPLQLVFAYFAVVQNIKKEEIENLQKYHDTISRPSHIFRLCNDLASASAEIARGETANSVSCYMRTKGISEELATESVMNLIDETWKKMNKEKLGGSLFAKPFVETAINLARQSHCTYHNGDAHTSPDELTRKRVLSVITEPILPFER	0.96
H515H: SEL member with the wild type residue at site 515 (wild type codon substituted) (protein, UniProt Q50L36 38-595, looked up) Isoprene synthase, …: CSVSTENVSFTETETEARRSANYEPNSWDYDYLLSSDTDESIEVYKDKAKKLEAEVRREINNEKAEFLTLLELIDNVQRLGLGYRFESDIRGALDRFVSSGGFDAVTKTSLHGTALSFRLLRQHGFEVSQEAFSGFKDQNGNFLENLKEDIKAILSLYEASFLALEGENILDEAKVFAISHLKELSEEKIGKELAEQVNHALELPLHRRTQRLEAVWSIEAYRKKEDANQVLLELAILDYNMIQSVYQRDLRETSRWWRRVGLATKLHFARDRLIESFYWAVGVAFEPQYSDCRNSVAKMFSFVTIIDDIYDVYGTLDELELFTDAVERWDVNAINDLPDYMKLCFLALYNTINEIAYDNLKDKGENILPYLTKAWADLCNAFLQEAKWLYNKSTPTFDDYFGNAWKSSSGPLQLVFAYFAVVQNIKKEEIENLQKYHDTISRPSHIFRLCNDLASASAEIARGETANSVSCYMRTKGISEELATESVMNLIDETWKKMNKEKLGGSLFAKPFVETAINLARQSHCTYHNGDAHTSPDELTRKRVLSVITEPILPFER	0.81
D345Y: P. alba IspS variant (protein, UniProt Q50L36 38-595, looked up, variant D345Y) Isoprene synthase, …: CSVSTENVSFTETETEARRSANYEPNSWDYDYLLSSDTDESIEVYKDKAKKLEAEVRREINNEKAEFLTLLELIDNVQRLGLGYRFESDIRGALDRFVSSGGFDAVTKTSLHGTALSFRLLRQHGFEVSQEAFSGFKDQNGNFLENLKEDIKAILSLYEASFLALEGENILDEAKVFAISHLKELSEEKIGKELAEQVNHALELPLHRRTQRLEAVWSIEAYRKKEDANQVLLELAILDYNMIQSVYQRDLRETSRWWRRVGLATKLHFARDRLIESFYWAVGVAFEPQYSDCRNSVAKMFSFVTIIYDIYDVYGTLDELELFTDAVERWDVNAINDLPDYMKLCFLALYNTINEIAYDNLKDKGENILPYLTKAWADLCNAFLQEAKWLYNKSTPTFDDYFGNAWKSSSGPLQLVFAYFAVVQNIKKEEIENLQKYHDTISRPSHIFRLCNDLASASAEIARGETANSVSCYMRTKGISEELATESVMNLIDETWKKMNKEKLGGSLFAKPFVETAINLARQSHCTYHNGDAHTSPDELTRKRVLSVITEPILPFER	0.84
D345I: P. alba IspS variant (protein, UniProt Q50L36 38-595, looked up, variant D345I) Isoprene synthase, …: CSVSTENVSFTETETEARRSANYEPNSWDYDYLLSSDTDESIEVYKDKAKKLEAEVRREINNEKAEFLTLLELIDNVQRLGLGYRFESDIRGALDRFVSSGGFDAVTKTSLHGTALSFRLLRQHGFEVSQEAFSGFKDQNGNFLENLKEDIKAILSLYEASFLALEGENILDEAKVFAISHLKELSEEKIGKELAEQVNHALELPLHRRTQRLEAVWSIEAYRKKEDANQVLLELAILDYNMIQSVYQRDLRETSRWWRRVGLATKLHFARDRLIESFYWAVGVAFEPQYSDCRNSVAKMFSFVTIIIDIYDVYGTLDELELFTDAVERWDVNAINDLPDYMKLCFLALYNTINEIAYDNLKDKGENILPYLTKAWADLCNAFLQEAKWLYNKSTPTFDDYFGNAWKSSSGPLQLVFAYFAVVQNIKKEEIENLQKYHDTISRPSHIFRLCNDLASASAEIARGETANSVSCYMRTKGISEELATESVMNLIDETWKKMNKEKLGGSLFAKPFVETAINLARQSHCTYHNGDAHTSPDELTRKRVLSVITEPILPFER	0.73
D345K: P. alba IspS variant (protein, UniProt Q50L36 38-595, looked up, variant D345K) Isoprene synthase, …: CSVSTENVSFTETETEARRSANYEPNSWDYDYLLSSDTDESIEVYKDKAKKLEAEVRREINNEKAEFLTLLELIDNVQRLGLGYRFESDIRGALDRFVSSGGFDAVTKTSLHGTALSFRLLRQHGFEVSQEAFSGFKDQNGNFLENLKEDIKAILSLYEASFLALEGENILDEAKVFAISHLKELSEEKIGKELAEQVNHALELPLHRRTQRLEAVWSIEAYRKKEDANQVLLELAILDYNMIQSVYQRDLRETSRWWRRVGLATKLHFARDRLIESFYWAVGVAFEPQYSDCRNSVAKMFSFVTIIKDIYDVYGTLDELELFTDAVERWDVNAINDLPDYMKLCFLALYNTINEIAYDNLKDKGENILPYLTKAWADLCNAFLQEAKWLYNKSTPTFDDYFGNAWKSSSGPLQLVFAYFAVVQNIKKEEIENLQKYHDTISRPSHIFRLCNDLASASAEIARGETANSVSCYMRTKGISEELATESVMNLIDETWKKMNKEKLGGSLFAKPFVETAINLARQSHCTYHNGDAHTSPDELTRKRVLSVITEPILPFER	0.69
